Laboratory results taken from US20210069339A1, “CNP PRODRUGS” (ASCENDIS PHARMA GROWTH DISORDERS A/S, priority 2015, published 2021).
Read-outs that look alike come from different tables or passages of the source. Bridges are numbered along the chain shown (N, C = ends). Where no end group is shown, it is not given here.

Tests used:
[1] = molecular target: T1, neutral endopeptidase (NEP) (Homo sapiens, UniProt P08473); assay: Digest of CNP variants by Neutral Endopeptidase in vitro; format: in vitro ADME; conditions: recombinant human neutral endopeptidase (NEP), pH 7.4, read-out: half life norm. (converted)
T1 construct: purchased Enzo Life Sciences GmbH, Lörrach, Germany
T1 sequence (P08473 whole entry): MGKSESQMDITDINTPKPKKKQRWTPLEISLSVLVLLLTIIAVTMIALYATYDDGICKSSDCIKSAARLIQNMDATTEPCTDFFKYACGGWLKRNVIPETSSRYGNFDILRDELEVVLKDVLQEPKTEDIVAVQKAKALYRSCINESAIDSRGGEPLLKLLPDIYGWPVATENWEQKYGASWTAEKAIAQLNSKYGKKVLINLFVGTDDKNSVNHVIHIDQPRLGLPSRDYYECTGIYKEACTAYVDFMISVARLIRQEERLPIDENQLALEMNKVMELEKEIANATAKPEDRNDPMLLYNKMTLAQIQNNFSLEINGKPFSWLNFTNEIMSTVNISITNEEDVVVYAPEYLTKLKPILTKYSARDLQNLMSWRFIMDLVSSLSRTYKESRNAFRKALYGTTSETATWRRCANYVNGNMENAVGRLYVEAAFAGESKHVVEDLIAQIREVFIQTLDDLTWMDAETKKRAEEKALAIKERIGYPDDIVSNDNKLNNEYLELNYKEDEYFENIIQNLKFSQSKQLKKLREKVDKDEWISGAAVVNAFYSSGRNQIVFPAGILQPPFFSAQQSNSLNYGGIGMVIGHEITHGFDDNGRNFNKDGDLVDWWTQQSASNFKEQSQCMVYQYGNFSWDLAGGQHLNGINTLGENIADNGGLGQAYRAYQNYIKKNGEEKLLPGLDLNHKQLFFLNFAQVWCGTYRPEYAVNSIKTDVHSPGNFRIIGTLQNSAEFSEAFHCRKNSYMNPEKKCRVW
Excerpt: Samples were taken at different time intervals. […] The resulting reaction products were assigned using HPLC-MS.

[2] = in vivo; cited from earlier work
[3] = doses up to 15 μg/kg, healthy volunteers; cited from earlier work
[4] = animal studies; cited from earlier work
[5] = after intravenous (iv) administration; cited from earlier work

CC[C@H](C)[C@@H]1NC(=O)[C@H](CCCNC(=N)N)NC(=O)[C@H](CC(=O)O)NC(=O)[C@H](CC(C)C)NC(=O)[C@H](CCCCN)NC(=O)[C@H](CC(C)C)NC(=O)CNC(=O)[C@H](Cc2ccccc2)NC(=O)[C@@H](NC(=O)CNC(=O)[C@H](CCCCN)NC(=O)[C@H](CO)NC(=O)[C@H](CC(C)C)NC(=O)CN)CSSC[C@@H](C(=O)O)NC(=O)CNC(=O)[C@H](CC(C)C)NC(=O)CNC(=O)[C@H](CO)NC(=O)[C@H](CCSC)NC(=O)[C@H](CO)NC(=O)CNC1=O [CNP-22]
half-life at 100 μg CNP equivalents/mL [1]: 19.2 min

BMN-111: modified recombinant human C-type Natriuretic Peptide where 17 amino acids have been added to form a 39 amino acid CNP pharmacological analog (PGQEHPNARKYKGANKKGLSKGCFGLKLDRIGSMSGLGC; disulfide 23-39; chains of the INN, looked up)
half-life [2]: 20 min
cardiovascular effect [3]: mild hypotension
immunogenicity [4]: immunological response

CNP: C-type natriuretic peptide, as discussed in the background
half-life [5]: 2 min
